Source: paper PMC11117822

Molecular target: poly-L-arginine hydrochloride
Assay: optical reflectometry; PARG layer adsorbed on silica in a stagnation point flow cell; HSA 5 mg L^-1 flowed over it at Q = 8.33 x 10^-3 cm^3 s^-1; 150 mM NaCl, pH 4.0; 298 K

human serum albumin (from UniProt P02768 25-609)
plateau coverage: 0.1 mg m^−2
